Experimental data reported in patent publication US20120184016A1, “NOVEL PROTEIN AND GENE THAT CODES THEREFOR” (priority 2009, published 2012).

What was measured:
[1] = Confirmation of β-galactoside-α2,6-sialyltransferase activity with pyridylaminated lactose, HPLC; type: biochemical; settings: enzyme expressed by E. coli transformed with SHIZ119-N1C0/pTrc99A
Description: The linkage mode of sialic acid transferred to the sugar acceptor substrate can be determined by, but is not limited to, any procedure known to those skilled in the art, for example, a method using a pyridylaminated sugar chain or nuclear magnetic resonance spectroscopy (NMR) of the reaction product. The method using a pyridylaminated sugar chain involves an enzyme reaction using the pyridylaminated sugar chain as the sugar acceptor substrate. More specifically, an enzyme reaction is performed using pyridylaminated lactose (Galβ1-4Glc-PA, manufactured by Takara Bio Inc.) as a sugar acceptor substrate and CMP-NeuAc as a sugar donor substrate, and the reaction product is analyzed by high performance liquid chromatography (HPLC). From the retention time of the reaction product, the position at which sialic acid was transferred is determined.
Then, to determine the linkage mode of sialic acid, a reaction using PA-lactose as a substrate was performed. The enzyme reaction was performed using the resulting crude enzyme solution and a pyridylaminated sugar chain as the sugar acceptor substrate. As the pyridylaminated sugar chain, pyridylaminated lactose (Galβ1-4Glc-PA, manufactured by Takara Bio Inc.) was used. […] The analysis was performed under the following conditions: flow rate: 1 mL/min, column temperature: 40° C., detection: fluorescence (Ex: 320 nm, Em: 400 nm). […]

[2] = system: JT-SHIZ-119-derived recombinant β-galactoside-α2,6-sialyltransferase N1C0 (neuraminidase activity); assay: Substrate specificity of neuraminidase activity with PA-sugar chains, HPLC; type: biochemical, Photobacterium leiognathi strain JT-SHIZ-119; settings: PA-sugar chains with α2,3-, α2,6- or α2,8-linked sialic acid; 30° C. for 18 hours
Description: The substrate specificity of neuraminidase, that is, the linkage mode of sialic acid to a sugar chain that is cleaved by the neuraminidase can be determined by, but not limited to, a method using a pyridylaminated sugar chain. More specifically, the enzyme reaction by neuraminidase is performed using PA sugar chains in which sialic acid is linked by α2,3-linkage, α2,6-linkage, or α2,8-linkage (for example, pyridylaminated sugar chains such as PA-Sugar Chain 029, PA-Sugar Chain 023, and PA-Sugar Chain 034 available from Takara Bio Inc.). The reaction product is analyzed by high performance liquid chromatography, and the amount of sialic acid that was cleaved is calculated from the retention time and peak area of the reaction product.
To reveal the specificity of the neuraminidase activity of the JT-SHIZ-119-derived recombinant β-galactoside-α2,6-sialyltransferase N1C0, reactions using a PA-sugar chain shown in Table 4, to which sialic acid is linked via α2,3-, α2,6-, or α2,8-linkage (PA-Sugar Chain 029, PA-Sugar Chain 023, or PA-Sugar Chain 034, manufactured by Takara Bio Inc.) as a substrate were performed.
To a purified enzyme solution of the JT-SHIZ-119-derived recombinant β-galactoside-α2,6-sialyltransferase N1C0 (equivalent to 0.6 U as sialyltransferase activity), 1.5 μL of a 10 pmol/μL PA-sugar chain was added, followed by reaction at 30° C. for 18 hours. After completion of the reaction, the reaction solution was treated at 100° C. for 2 minutes to inactivate the enzyme, followed by HPLC to analyze the reaction product. In the case of using PA-Sugar Chain 023 as the substrate, the pyridylaminated sugar chain was eluted and analyzed under the same conditions as those in Example 1. In the case of using PA-Sugar Chain 029 or PA-Sugar Chain 034 as the substrate, the elution was performed using eluent A (100 mM acetate-triethylamine, pH 5.0) and eluent B (100 mM acetate-triethylamine containing 0.5% n-butanol, pH 5.0) with a linear gradient of 0 to 100% eluent B (0 to 35 min), 100% eluent B (35 to 50 min), and then a linear gradient of 100% to 30% eluent B (51 to 75 min). The analysis was performed under the conditions of Example 1. FIGS. 3-2 to 3-8 show the results.

[3] = Optimum pH and optimum temperature for sialyltransferase enzyme activity; type: biochemical; settings: purified enzyme
Source text: The optimum pH and the optimum temperature of the recombinant β-galactoside-α2,6-sialyltransferase SHIZ119-N1C0 derived from the JT-SHIZ-119 strain were investigated using the purified enzyme prepared in Example 3.
Acetate buffer (pH 4.0 to 5.0), cacodylate buffer (pH 5.0 to 6.0), Bis-Tris buffer (pH 6.0 to 7.0), phosphate buffer (pH 7.0 to 8.0), TAPS buffer (pH 8.0 to 9.0), CHES buffer (pH 9.0 to 10.0), and CAPS buffer (pH 10.0 to 11.0) were each prepared and were used for enzyme activity measurement at 30° C. at various pH levels.
The enzyme activity was measured at every increment of 5° C. starting from 5° C. up to 50° C. using cacodylate buffer (pH 5.0).

[4] = Confirmation of neuraminidase activity (long reaction, HPLC); type: biochemical; settings: purified enzyme; PA-6′-sialyllactose signal decreased, PA-lactose signal increased with reaction time; FIG. 3-1
Description: In the process described in Example 2(6), the reaction using the purified enzyme solution of the JT-SHIZ-119-derived recombinant β-galactoside-α2,6-sialyltransferase prepared in Example 3 was performed for a long time. The signal of the reaction product (PA-6′-sialyllactose, retention time: 4.02 min) decreased and the signal of the PA-lactose (retention time: 3.73 min), which was the original sugar acceptor substrate, increased in accordance with an increase in reaction time (FIG. 3-1).

B1: SHIZ119-N1C0 (protein)
chain: MCNDNQNTVDVVVSTVNDNVIENNTYQVKPIDTPTTFDSYSWIQTCGTPILKDDEKYSLSFDFVAPELDQDEKFCFEFTGDVDGKRYVTQTNLTVVAPTLEVYVDHASLPSLQQLMKIIQQKNEYSQNERFISWGRIGLTEDNAEKLNAHIYPLAGNNTSQELVDAVIDYADSKNRLNLELNTNTAHSFPNLAPILRIISSKSNILISNINLYDDGSAEYVNLYNWKDTEDKSVKLSDSFLVLKDYFNGISSEKPSGIYGRYNWHQLYNTSYYFLRKDYLTVEPQLHDLREYLGGSLKQMSWDGFSQLSKGDKELFLNIVGFDQEKLQQEYQQSELPNFVFTGTTTWAGGETKEYYAQQQVNVVNNAINETSPYYLGREHDLFFKGHPRGGIINDIILGSFNNMIDIPAKVSFEVLMMTGMLPDTVGGIASSLYFSIPAEKVSFIVFTSSDTITDREDALKSPLVQVMMTLGIVKEKDVLFWSDLPDCSSGVCIAQY
modifications: beta-galacoside-alpha-2,6-sialyltransferase from phorobacterium leiognathi (without signal peptide)
reaction product with PA-lactose and CMP-NeuAc (linkage mode of transferred sialic acid) [1]: PA-6′-sialyllactose (Neu5Acα2-6Galβ1-4Glc-PA) was detected
specificity of neuraminidase activity (linkage mode) [2]: specific to sialic acid of α2,6-linkage
pH at which sialyltransferase enzyme activity is the highest (optimum pH) ([3]; 30° C., pH 4.0 to 11.0, FIG. 2-1): 5.0
temperature at which sialyltransferase enzyme activity is the highest (optimum temperature) ([3]; cacodylate buffer (pH 5.0), 5° C. up to 50° C., FIG. 2-2): 35 °C
neuraminidase activity (in words) [4]: also has neuraminidase activity
